Assay results: US20210388081A1 (Memorial Sloan Kettering, published 2021)

T1: Fc Receptor-like 5 (FcRL5), full length, overexpressed on 3T3 or Raji cells (human, UniProt Q96RD9 16-977)
T1 construct: also called 3T3-FcRL5
T1 sequence: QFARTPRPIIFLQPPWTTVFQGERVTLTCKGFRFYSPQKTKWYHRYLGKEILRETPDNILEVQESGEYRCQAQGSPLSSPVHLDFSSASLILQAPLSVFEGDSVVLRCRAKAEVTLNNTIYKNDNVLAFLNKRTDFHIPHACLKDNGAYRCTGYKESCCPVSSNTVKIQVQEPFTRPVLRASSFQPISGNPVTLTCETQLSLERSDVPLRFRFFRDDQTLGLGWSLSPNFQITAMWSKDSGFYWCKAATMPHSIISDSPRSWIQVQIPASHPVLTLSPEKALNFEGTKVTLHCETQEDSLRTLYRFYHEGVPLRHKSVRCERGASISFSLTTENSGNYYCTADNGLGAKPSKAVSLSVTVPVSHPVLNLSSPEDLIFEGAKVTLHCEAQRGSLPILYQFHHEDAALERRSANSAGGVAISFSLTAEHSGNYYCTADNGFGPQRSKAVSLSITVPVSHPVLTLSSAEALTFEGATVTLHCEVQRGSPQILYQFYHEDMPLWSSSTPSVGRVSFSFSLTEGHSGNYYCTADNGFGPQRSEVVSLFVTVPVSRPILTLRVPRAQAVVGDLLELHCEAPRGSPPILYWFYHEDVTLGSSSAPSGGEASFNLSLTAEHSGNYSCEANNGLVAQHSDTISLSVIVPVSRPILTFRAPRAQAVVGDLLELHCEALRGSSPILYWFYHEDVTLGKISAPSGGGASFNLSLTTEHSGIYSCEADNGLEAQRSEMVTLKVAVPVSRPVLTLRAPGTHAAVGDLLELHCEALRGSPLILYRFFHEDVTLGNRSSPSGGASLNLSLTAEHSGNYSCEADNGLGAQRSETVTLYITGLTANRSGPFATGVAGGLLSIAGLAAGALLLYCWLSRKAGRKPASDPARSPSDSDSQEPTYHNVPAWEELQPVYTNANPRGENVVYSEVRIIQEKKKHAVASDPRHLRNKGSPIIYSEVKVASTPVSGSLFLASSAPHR

T2: FcRL4, overexpressed on 3T3 cells (UniProt Q96PJ5 20-515, limits assumed)
T2 construct: whole, on cells
T2 sequence (looked up): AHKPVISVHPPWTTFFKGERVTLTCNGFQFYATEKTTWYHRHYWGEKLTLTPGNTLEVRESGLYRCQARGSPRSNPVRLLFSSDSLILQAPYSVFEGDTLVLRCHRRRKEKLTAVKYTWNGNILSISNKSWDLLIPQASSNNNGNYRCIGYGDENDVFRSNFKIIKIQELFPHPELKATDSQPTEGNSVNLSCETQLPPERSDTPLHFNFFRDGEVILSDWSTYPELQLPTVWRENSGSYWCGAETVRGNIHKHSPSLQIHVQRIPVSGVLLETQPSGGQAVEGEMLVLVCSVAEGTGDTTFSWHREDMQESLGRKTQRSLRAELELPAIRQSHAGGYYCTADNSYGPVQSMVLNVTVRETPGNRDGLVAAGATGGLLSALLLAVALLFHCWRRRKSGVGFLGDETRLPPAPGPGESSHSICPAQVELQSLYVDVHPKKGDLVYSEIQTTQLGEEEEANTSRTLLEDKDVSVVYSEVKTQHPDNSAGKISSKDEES

T3: FcRL1, overexpressed on 3T3 cells (UniProt Q96LA6 17-429, limits assumed)
T3 construct: whole, on cells
T3 sequence (looked up): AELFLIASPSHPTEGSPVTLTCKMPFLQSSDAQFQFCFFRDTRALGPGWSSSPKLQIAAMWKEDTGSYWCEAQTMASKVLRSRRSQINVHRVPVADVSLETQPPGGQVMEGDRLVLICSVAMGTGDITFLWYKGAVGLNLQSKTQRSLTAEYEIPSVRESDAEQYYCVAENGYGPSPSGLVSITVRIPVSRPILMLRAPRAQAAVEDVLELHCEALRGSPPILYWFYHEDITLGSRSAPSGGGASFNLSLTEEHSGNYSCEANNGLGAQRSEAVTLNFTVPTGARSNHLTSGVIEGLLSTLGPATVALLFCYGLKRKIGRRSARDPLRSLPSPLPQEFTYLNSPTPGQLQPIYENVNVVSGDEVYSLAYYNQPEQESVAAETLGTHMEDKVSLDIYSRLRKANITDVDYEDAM

T4: FcRL2, overexpressed on 3T3 cells (UniProt Q96LA5 20-508, limits assumed)
T4 construct: whole, on cells
T4 sequence (looked up): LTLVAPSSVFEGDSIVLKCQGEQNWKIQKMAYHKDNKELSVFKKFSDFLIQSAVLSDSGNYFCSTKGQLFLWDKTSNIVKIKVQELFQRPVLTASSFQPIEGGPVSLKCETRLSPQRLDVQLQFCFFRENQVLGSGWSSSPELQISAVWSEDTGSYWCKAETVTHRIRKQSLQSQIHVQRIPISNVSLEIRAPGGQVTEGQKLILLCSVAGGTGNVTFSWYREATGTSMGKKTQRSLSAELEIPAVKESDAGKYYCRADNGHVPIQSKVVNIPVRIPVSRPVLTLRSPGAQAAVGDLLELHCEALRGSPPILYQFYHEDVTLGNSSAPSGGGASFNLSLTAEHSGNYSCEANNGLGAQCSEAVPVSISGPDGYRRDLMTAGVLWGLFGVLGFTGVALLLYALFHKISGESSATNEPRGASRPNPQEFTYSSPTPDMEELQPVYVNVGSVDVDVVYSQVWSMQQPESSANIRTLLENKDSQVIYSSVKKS

B1: ET200-016 (scFv)
scFv: SSELTQDPAVSVALGQTVKITCQGDSLTDYHATWYQQKPGQAPVAVIYATNNRPTGIPDRFSGSSSGNTASLTITGAQAEDEADYYCNSRDSGTDEVLFGGGTKLTVLGSRGGGGSGGGGSGGGGSLEMAEVQLVETGGGLVKPGGSLRLSCAASGFTFSSYSMNWVRQAPGKGLEWVSSISSSSSYIYYADSVKGRFTISRDNAKNSLYLQMNSLRAEDTAVYYCARGQGYDYWGQGTLVTVSSTSGQAGQHHHHHHGAYPYDVPDYAS
notes: screened as phage clone; entry is VL-linker-VH-His tag-HA tag
B2: ET200-018 (scFv)
scFv: QAVLTQPPSTSGTPGQRVTISCSGSSSNIGRNGVNWYQQLPGAAPKVLIYNDNQRPSGVPDRVSGSQSGSSGTLAIDGLRSEDEADYYCAAWDDSLHGVVFGGGTKLTVLGSRGGGGSGGGGSGGGGSLEMAQVQLVQSGAEVKKPGASVKVSCKVSGYTLNELSMHWVRQAPGKGLEWMGGFDPEDGETIYAQKFQGRVTMTEDTSTDTAYMELSSLRSEDTAVYYCARGGYGDSWGQGTLVTVSSTSGQAGQHHHHHHGAYPYDVPDYAS
notes: as for B1
B3: ET200-011 (scFv)
scFv: QSVVTQPPSVSAAPGQRVTISCSGSSSNISIYDVSWYQQLPGTAPKLLIYGNNKRPSGIADRFSGSTSGTSATLGITGLQTGDEADYYCGTWDDSLSGGVFGGGTKLTVLGSRGGGGSGGGGSGGGGSLEMAQMQLVQSGAEVKKPGSSVKVSCEASGGTLSSYAINWVRQAPGQGLEWMGGIIPMFGTAHYAQKFQGRVTITADESTKTAYMELSSLRSEDTAVYYCARGVHYASFDHWGQGTLVTVSSTSGQAGQHHHHHHGAYPYDVPDYAS
notes: as for B1
B4: ET200-017 (scFv)
scFv: SYVLTQPPSVSVAPGKTARITCGGNNIGSKSVHWYQQKPGQAPVLVVYDDSDRPSGIPERFSGSNSGNTATLSISRVEAGDEADYYCQVWDSSSDHTVFGTGTKVTVLGSRGGGGSGGGGSGGGGSLEMAQVQLQQWGAGLLKPSETLSLTCAVYGGSFSGYYWSWIRQPPGKGLEWIGEINHSGSTNYNPSLKSRVTISVDTSKNQFSLKLSSVTAADTAVYYCARYYPGMDMWGQGTLVTVSSTSGQAGQHHHHHHGAYPYDVPDYAS
notes: as for B1
B5: ET200-013 (scFv)
scFv: QSVVTQPPSVSGAPGQRVTISCTGSTSNIGAGYDVHWYQQLPGTAPKLLIYTNNFRPSGVPDRFSASKSGTSASLAITGLQAEDEADYYCGTWDSSLSAVVFGGGTKLTVLGSRGGGGSGGGGSGGGGSLEMAEVQLVESGTEVKKPGASVKVSCKASGYMFTSYGLNWVRQAPGQGLEWMGWISANNGKTNYAKKFQDRVTMTRDTSTSTGYMELRSLRSDDTAVYYCARHIGGSYFDRWGQGTLVTVSSTSGQAGQHHHHHHGAYPYDVPDYAS
notes: as for B1
B6: ET200-012 (scFv)
scFv: QSVLTQPPSVSAAAGQKVTISCSGSDSNIGNNYVSWYQHLPGTAPKLLIYDVKNRPSGIPDRFSGSKSGSSATLGIAGLQPGDEADYYCGTWDSRLDAYVFGTGTKVTVLGSRGGGGSGGGGSGGGGSLEMAQMQLVQSGAEVKKPGASVKVSCKTSGFPFNIFGITWVRQAPGQGLEWMGWISGYNGNTDYPQKFQGRVTMSTDTSTSTAYMELRNLKSDDTAVYYCARGAYGGMDTWGQGTLVTVSSTSGQAGQHHHHHHGAYPYDVPDYAS
notes: as for B1
B7: ET200-014 (scFv)
scFv: SYVLTQPPSVSVAPGKTARITCGGNNIGSKSVHWYQQKPGQAPVLVIYYDSDRPSGIPERFSGSNSGNTATLTISRVEAGDEADYYCQVWDSSSDHYVFGTGTKVTVLGSRGGGGSGGGGSGGGGSLEMAEVQLVETGGGLVQPGGSLRLSCAASGFTFSSYAMSWVRQAPGKGLEWVSAISGSDGSTYYADSVKGRFTISRDNSKNTLYLQMNSLRDEDTAVYYCARSHEANLVGDWWGQGTLVTVSSTSGQAGQHHHHHHGAYPYDVPDYAS
notes: as for B1
B8: ET200-015 (scFv)
scFv: QSVVTQPPSVSVAPGKTARITCGGNNIGSKSVHWYQQKPGQAPVLVIYYDSDRPSGIPERFSGSNSGNTATLTISRVEAGDEADYYCQVWDSSSDVVFGGGTKLTVLGSRGGGGSGGGGSGGGGSLEMAEVQLVQSGAEVKKPGASVKVSCKASGYTFTSYGISWVRQAPGQGLEWMGWISAYNGNTNYAQKLQGRVTMTTDTSTSTAYMELRSLRSDDTAVYYCARWGGFGAVDHWGQGTLVTVSSTSGQAGQHHHHHHGAYPYDVPDYAS
notes: as for B1

What follows are binders tested against T1, Fc Receptor-like 5 (FcRL5), full … (assay: phage clone screening on cells).
Description: Once selected, positive scFv clones are further tested for their binding to FcRL5 (e.g., human FcRL5) on live 3T3 cell surfaces by flow cytometry. Briefly, phage clones are incubated with 3T3 cells over-expressing FcRL5. The cells are washed and then incubated with a mouse anti-M13 coat protein mAb. Cells are washed again and labeled with a PE-horse anti-mouse Ig prior to flow cytometry.
Phage′ display against FcRL5 was performed to enrich for scFv phage clones that bind to FcRL5 specifically. Screening was carried out on FcRL5 overexpressing 3T3 cells or 3T3 cells expressing FcRL1, 2, 3, 4 or 6 as a negative control (FIG. 2).

**Q.** Does B1 bind?
**A.** Result: binds

**Q.** Does B2 bind?
**A.** Result: binds

**Q.** Does B3 bind?
**A.** Result: binds

**Q.** Does B4 bind?
**A.** Result: binds

**Q.** Does B5 bind?
**A.** Result: binds

**Q.** Does B6 bind?
**A.** Result: binds

**Q.** Does B7 bind?
**A.** Result: binds

**Q.** Does B8 bind?
**A.** Result: binds

What follows are binders tested against T2, FcRL4, overexpressed on 3T3 cells (assay: phage clone on 3T3-FcRL4 cells).

**Q.** Does B1 bind?
**A.** Result: no binding

**Q.** Does B2 bind?
**A.** Result: no binding

**Q.** Does B3 bind?
**A.** Result: no binding

**Q.** Does B4 bind?
**A.** Result: no binding

**Q.** Does B5 bind?
**A.** Result: no binding

**Q.** Does B6 bind?
**A.** Result: no binding

**Q.** Does B7 bind?
**A.** Result: no binding

**Q.** Does B8 bind?
**A.** Result: no binding

The binders below were run against T3, FcRL1, overexpressed on 3T3 cells (assay: phage clone on 3T3-FcRL1 cells).

**Q.** Does B1 bind?
**A.** Result: no binding

**Q.** Does B2 bind?
**A.** Result: no binding

**Q.** Does B3 bind?
**A.** Result: no binding

**Q.** Does B4 bind?
**A.** Result: no binding

**Q.** Does B5 bind?
**A.** Result: no binding

**Q.** Does B6 bind?
**A.** Result: no binding

**Q.** Does B7 bind?
**A.** Result: no binding

**Q.** Does B8 bind?
**A.** Result: no binding

The binders below were run against SLAMF9 protein (UniProt Q96A28 19-236, limits assumed) (assay: phage clone on SLAMF9 protein).
Chain of SLAMF9 protein (Q96A28 19-236 limits assumed): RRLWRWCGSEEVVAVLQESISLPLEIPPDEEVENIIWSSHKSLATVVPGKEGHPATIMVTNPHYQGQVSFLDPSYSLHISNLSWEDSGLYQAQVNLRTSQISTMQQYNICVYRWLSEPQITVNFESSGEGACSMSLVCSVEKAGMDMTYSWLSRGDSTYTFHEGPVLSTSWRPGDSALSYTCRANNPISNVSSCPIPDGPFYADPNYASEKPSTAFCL

**Q.** Does B1 bind?
**A.** Result: no binding

**Q.** Does B2 bind?
**A.** Result: no binding

**Q.** Does B3 bind?
**A.** Result: no binding

**Q.** Does B4 bind?
**A.** Result: no binding

**Q.** Does B5 bind?
**A.** Result: no binding

**Q.** Does B6 bind?
**A.** Result: no binding

**Q.** Does B7 bind?
**A.** Result: no binding

**Q.** Does B8 bind?
**A.** Result: no binding

The binders below were run against T4, FcRL2, overexpressed on 3T3 cells (assay: phage clone on 3T3-FcRL2 cells).

**Q.** Does B1 bind?
**A.** Result: no binding

**Q.** Does B2 bind?
**A.** Result: no binding

**Q.** Does B3 bind?
**A.** Result: no binding

**Q.** Does B4 bind?
**A.** Result: no binding

**Q.** Does B5 bind?
**A.** Result: no binding

**Q.** Does B6 bind?
**A.** Result: no binding

**Q.** Does B7 bind?
**A.** Result: no binding

**Q.** Does B8 bind?
**A.** Result: no binding
